Laboratory results reported in IntAct's records for PubMed 20389280.

B1: Kelch-like protein 20 (Homo sapiens), Q9Y2M5 (parent)
chain: MEGKPMRRCTNIRPGETGMDVTSRCTLGDPNKLPEGVPQPARMPYISDKHPRQTLEVINLLRKHRELCDVVLVVGAKKIYAHRVILSACSPYFRAMFTGELAESRQTEVVIRDIDERAMELLIDFAYTSQITVEEGNVQTLLPAACLLQLAEIQEACCEFLKRQLDPSNCLGIRAFADTHSCRELLRIADKFTQHNFQEVMESEEFMLLPANQLIDIISSDELNVRSEEQVFNAVMAWVKYSIQERRPQLPQVLQHVRLPLLSPKFLVGTVGSDPLIKSDEECRDLVDEAKNYLLLPQERPLMQGPRTRPRKPIRCGEVLFAVGGWCSGDAISSVERYDPQTNEWRMVASMSKRRCGVGVSVLDDLLYAVGGHDGSSYLNSVERYDPKTNQWSSDVAPTSTCRTSVGVAVLGGFLYAVGGQDGVSCLNIVERYDPKENKWTRVASMSTRRLGVAVAVLGGFLYAVGGSDGTSPLNTVERYNPQENRWHTIAPMGTRRKHLGCAVYQDMIYAVGGRDDTTELSSAERYNPRTNQWSPVVAMTSRRSGVGLAVVNGQLMAVGGFDGTTYLKTIEVFDPDANTWRLYGGMNYRRLGGGVGVIKMTHCESHIW

Variants of: B1
Conditions: with cul3_human CUL3, Q13618

Variant | effect of a mutation on the interaction
L148A | disrupting interaction
I111A | disrupting interaction
V109A | disrupting interaction
L150A | disrupting interaction
C146A | disrupting interaction
